Data: patent EP4663662A1
Like-named read-outs stand apart in the source and are kept apart here.

How the values were obtained:
human GPRC5D (human) [1] = molecular target: human GPRC5D (human) (UniProt Q9NZD1); test: flow cytometry, human GPRC5D-CHOK1 cells; control
human BCMA (human) [2] = molecular target: human BCMA (human) (UniProt Q02223); test: flow cytometry, human BCMA-CHOK1 cells; control
[3] = molecular target: cynomolgus monkey GPRC5D (cynomolgus monkey); test: flow cytometry, cynomolgus GPRC5D-CHOK1 cells; control
Chain of cynomolgus monkey GPRC5D (cynomolgus monkey) (Q9NZD1 other isoform, or with tags, fused parts or gaps): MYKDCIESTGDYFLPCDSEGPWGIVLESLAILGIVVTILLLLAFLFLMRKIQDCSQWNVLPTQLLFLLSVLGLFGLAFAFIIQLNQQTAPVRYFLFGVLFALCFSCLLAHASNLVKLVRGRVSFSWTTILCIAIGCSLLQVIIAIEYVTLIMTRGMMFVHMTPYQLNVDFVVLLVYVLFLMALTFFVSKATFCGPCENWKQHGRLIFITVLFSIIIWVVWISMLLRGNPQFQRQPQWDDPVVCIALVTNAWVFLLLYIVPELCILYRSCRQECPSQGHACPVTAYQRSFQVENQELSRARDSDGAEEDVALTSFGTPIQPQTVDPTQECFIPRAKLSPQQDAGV

[4] = molecular target: cynomolgus monkey GPRC5D (cynomolgus monkey); test: as above; remark: listed apart in the source
[5] = molecular target: cynomolgus monkey BCMA (cynomolgus monkey); test: flow cytometry, cynomolgus BCMA-CHOK1 cells; control
Chain of cynomolgus monkey BCMA (cynomolgus monkey) (Q02223 other isoform, or with tags, fused parts or gaps): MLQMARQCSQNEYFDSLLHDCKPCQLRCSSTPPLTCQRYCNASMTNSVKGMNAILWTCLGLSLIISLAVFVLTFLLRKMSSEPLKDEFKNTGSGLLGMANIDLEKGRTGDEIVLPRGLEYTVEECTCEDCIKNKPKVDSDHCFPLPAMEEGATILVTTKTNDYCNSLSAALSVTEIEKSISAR

[6] = molecular target: cynomolgus monkey BCMA (cynomolgus monkey); test: as above; remark: listed apart in the source
human GPRC5D (human) [7] = molecular target: human GPRC5D (human) (UniProt Q9NZD1); test: flow cytometry, NCI-H929 cells; control
human BCMA (human) [8] = molecular target: human BCMA (human) (UniProt Q02223); test: flow cytometry, human BCMA-CHOK1 cells; control; remark: listed apart in the source
[9] = molecular target: cynomolgus monkey BCMA (cynomolgus monkey); test: flow cytometry, cynomolgus BCMA-CHOK1 cells
soluble BCMA = soluble BCMA (UniProt Q02223); test: cell-based or functional assay
Chain of soluble BCMA (Q02223 1-54 limits assumed): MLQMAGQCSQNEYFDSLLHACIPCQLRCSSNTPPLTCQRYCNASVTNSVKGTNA

[10] = molecular target: cynomolgus monkey CD3 on cyno PBMCs (cynomolgus monkey) (UniProt Q95LI5); test: flow cytometry, cyno PBMCs
Chain of cynomolgus monkey CD3 on cyno PBMCs (cynomolgus monkey) (Q95LI5 22-198): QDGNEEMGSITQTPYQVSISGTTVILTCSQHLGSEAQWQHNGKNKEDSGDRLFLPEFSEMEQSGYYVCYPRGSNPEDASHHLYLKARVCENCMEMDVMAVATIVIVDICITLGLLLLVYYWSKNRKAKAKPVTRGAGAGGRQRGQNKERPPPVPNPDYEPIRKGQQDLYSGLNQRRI

human GPRC5D (human) [11] = molecular target: human GPRC5D (human) (UniProt Q9NZD1); test: flow cytometry, human GPRC5D-CHOK1 cells
human BCMA (human) [12] = molecular target: human BCMA (human) (UniProt Q02223); test: flow cytometry, NCI-H929 cells (express BCMA and GPRC5D)
[13] = molecular target: human CD3 on cells (Jurkat cells, human PBMCs) (human) (UniProt P07766); test: flow cytometry, Jurkat cells
Chain of human CD3 on cells (Jurkat cells, human PBMCs) (human) (P07766 23-207): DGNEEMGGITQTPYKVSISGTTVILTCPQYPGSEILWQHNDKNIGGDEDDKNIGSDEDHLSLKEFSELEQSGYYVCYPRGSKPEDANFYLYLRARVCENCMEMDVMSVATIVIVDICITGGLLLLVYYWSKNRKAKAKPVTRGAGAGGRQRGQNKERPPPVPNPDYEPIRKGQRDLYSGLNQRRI

[14] = molecular target: human CD3 on cells (Jurkat cells, human PBMCs) (human) (UniProt P07766); test: flow cytometry, human PBMCs
human BCMA (human) [15] = molecular target: human BCMA (human) (UniProt Q02223); test: flow cytometry, RPMI8226 cells (express BCMA and GPRC5D)
human BCMA (human) [16] = molecular target: human BCMA (human) (UniProt Q02223); test: flow cytometry, human BCMA-CHOK1 cells
[17] = molecular target: human CD3 protein (Acro, Cat. No. CDD-H52W1) (human) (UniProt P07766); test: SPR (Biacore), CD3 immobilised on CM5, antibody as analyte, 1:1 fit
Chain of human CD3 protein (Acro, Cat. No. CDD-H52W1) (human) (P07766 23-126): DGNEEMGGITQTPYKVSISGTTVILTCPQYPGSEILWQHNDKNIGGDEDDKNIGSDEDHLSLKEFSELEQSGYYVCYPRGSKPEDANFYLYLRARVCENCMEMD

[18] = molecular target: cynomolgus monkey CD3 protein (Acro, Cat. No. CDD-C52W4) (cynomolgus monkey) (UniProt Q95LI5); test: as above
Chain of cynomolgus monkey CD3 protein (Acro, Cat. No. CDD-C52W4) (cynomolgus monkey) (Q95LI5 22-117): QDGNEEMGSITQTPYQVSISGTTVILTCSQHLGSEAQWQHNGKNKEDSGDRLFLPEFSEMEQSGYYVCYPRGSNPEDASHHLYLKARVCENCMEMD

[19] = molecular target: human BCMA protein (Acro, Cat. No. BCA-H522y) (human) (UniProt Q02223); test: SPR (Biacore), antibody captured by anti-human IgG Fc, BCMA as analyte, 1:1 fit
Chain of human BCMA protein (Acro, Cat. No. BCA-H522y) (human) (Q02223 1-54 limits assumed): as the sequence (Q02223 1-54 limits assumed) above

[20] = molecular target: cynomolgus monkey BCMA protein (Acro, Cat. No. BCA-C52H7) (cynomolgus monkey); test: as above
[21] = molecular target: dual targets human BCMA and human GPRC5D on tumor cells (NCI-H929, RPMI8226) (human); test: flow cytometry, NCI-H929 cells (express BCMA and GPRC5D); negative control
Chain of dual targets human BCMA and human GPRC5D on tumor cells (NCI-H929, RPMI8226) (human) (chain, as listed by the source, chain 1 of 2): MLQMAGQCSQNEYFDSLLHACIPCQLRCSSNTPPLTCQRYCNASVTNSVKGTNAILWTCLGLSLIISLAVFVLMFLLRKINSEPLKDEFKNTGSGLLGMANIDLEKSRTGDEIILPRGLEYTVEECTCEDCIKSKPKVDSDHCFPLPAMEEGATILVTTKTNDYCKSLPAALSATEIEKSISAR
Chain of dual targets human BCMA and human GPRC5D on tumor cells (NCI-H929, RPMI8226) (human) (chain, as listed by the source, chain 2 of 2): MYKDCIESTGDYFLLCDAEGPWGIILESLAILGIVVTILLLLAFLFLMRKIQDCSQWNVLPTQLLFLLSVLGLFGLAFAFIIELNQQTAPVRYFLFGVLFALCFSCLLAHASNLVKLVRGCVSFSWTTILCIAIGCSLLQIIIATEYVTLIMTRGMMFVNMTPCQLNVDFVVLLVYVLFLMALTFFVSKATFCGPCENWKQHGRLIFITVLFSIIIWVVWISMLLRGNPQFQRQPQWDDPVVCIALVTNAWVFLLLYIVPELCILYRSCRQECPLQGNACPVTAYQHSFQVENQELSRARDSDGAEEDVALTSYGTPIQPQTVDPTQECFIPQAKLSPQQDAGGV

human GPRC5D (human) [22] = molecular target: human GPRC5D (human) (UniProt Q9NZD1); test: flow cytometry, human GPRC5D-CHOK1 cells; negative control
[23] = molecular target: cynomolgus monkey CD3 on cyno PBMCs (cynomolgus monkey) (UniProt Q95LI5); test: flow cytometry, cyno PBMCs; negative control
human BCMA (human) [24] = molecular target: human BCMA (human) (UniProt Q02223); test: flow cytometry, human BCMA-CHOK1 cells; negative control
[25] = molecular target: dual targets human BCMA and human GPRC5D on tumor cells (NCI-H929, RPMI8226) (human); test: flow cytometry, RPMI8226 cells (express BCMA and GPRC5D); negative control
[26] = molecular target: human CD3 on cells (Jurkat cells, human PBMCs) (human) (UniProt P07766); test: flow cytometry, human PBMCs; negative control
[27] = molecular target: human CD3 on cells (Jurkat cells, human PBMCs) (human) (UniProt P07766); test: flow cytometry, Jurkat cells; negative control

Chain of human GPRC5D (human) (Q9NZD1 whole entry): as the sequence (chain, as listed by the source, chain 2 of 2) above
Chain of human BCMA (human) (Q02223 whole entry): as the sequence (chain, as listed by the source, chain 1 of 2) above

IgG1 AA (antibody)
Top MFI (human GPRC5D (human) [1]): 36 MFI | Top MFI (human BCMA (human) [2]): 89.1 MFI | Top MFI [3]: 85 MFI | Top MFI [4]: 1840 MFI | Top MFI [5]: 82.6 MFI | Top MFI [6]: 382 MFI | Top MFI (human GPRC5D (human) [7]): 178 MFI | Top MFI (human BCMA (human) [8]): 232 MFI

Teclistamab analogue (BCMA/CD3) (bispecific antibody)
EC50 [9]: 15.3 nM | Top MFI [9]: 1770 MFI | Ratio (EC50) of TDCC on NCI-H929, 2.5 ug/ml BCMA against 0 ug/ml BCMA (soluble BCMA): 21 fold | fold change of TDCC EC50 on NCI-H929 in the presence of 2500 ng/ml soluble BCMA (soluble BCMA): 25 fold | EC50 [10]: 55.8 nM | Top MFI [10]: 2060 MFI | Top MFI (human GPRC5D (human) [11]): 160 MFI | EC50 (human BCMA (human) [12]): 2.43 nM | Top MFI (human BCMA (human) [12]): 669 MFI | EC50 [13]: 3.22 nM | Top MFI [13]: 825 MFI | EC50 [14]: 6.06 nM | Top MFI [14]: 672 MFI | EC50 (human BCMA (human) [15]): 1.17 nM | Top MFI (human BCMA (human) [15]): 169 MFI | EC50 (human BCMA (human) [16]): 2.63 nM | Top MFI (human BCMA (human) [16]): 2280 MFI | Kd [17]: 21 nM | koff [17]: 0.00522 s⁻¹ | kon [17]: 248000 M⁻¹ s⁻¹ | Kd [18]: 21.1 nM | koff [18]: 0.00336 s⁻¹ | kon [18]: 159000 M⁻¹ s⁻¹ | Kd [19]: 0.379 nM | koff [19]: 0.00135 s⁻¹ | kon [19]: 3.55e+06 M⁻¹ s⁻¹ | Kd [20]: 8.49 nM | koff [20]: 0.0235 s⁻¹ | kon [20]: 2.77e+06 M⁻¹ s⁻¹

hIgG1 LALA isotype (Biointron, Cat. No. B109802) (antibody)
Top MFI [21]: 104 MFI | Top MFI (human GPRC5D (human) [22]): 100 MFI | Top MFI [23]: 93.3 MFI | Top MFI (human BCMA (human) [24]): 119 MFI | Top MFI [25]: 112 MFI | Top MFI [26]: 96.1 MFI | Top MFI [27]: 77.6 MFI

Talquetamab analogue (GPRC5D/CD3) (bispecific antibody)
Kd [17]: 18 nM | koff [17]: 0.00201 s⁻¹ | kon [17]: 112000 M⁻¹ s⁻¹ | Kd [18]: 22.2 nM | koff [18]: 0.00379 s⁻¹ | kon [18]: 170000 M⁻¹ s⁻¹
